This test has as its target T1, TRAF6 (UniProt Q9Y4K3 1-522).
T1 sequence: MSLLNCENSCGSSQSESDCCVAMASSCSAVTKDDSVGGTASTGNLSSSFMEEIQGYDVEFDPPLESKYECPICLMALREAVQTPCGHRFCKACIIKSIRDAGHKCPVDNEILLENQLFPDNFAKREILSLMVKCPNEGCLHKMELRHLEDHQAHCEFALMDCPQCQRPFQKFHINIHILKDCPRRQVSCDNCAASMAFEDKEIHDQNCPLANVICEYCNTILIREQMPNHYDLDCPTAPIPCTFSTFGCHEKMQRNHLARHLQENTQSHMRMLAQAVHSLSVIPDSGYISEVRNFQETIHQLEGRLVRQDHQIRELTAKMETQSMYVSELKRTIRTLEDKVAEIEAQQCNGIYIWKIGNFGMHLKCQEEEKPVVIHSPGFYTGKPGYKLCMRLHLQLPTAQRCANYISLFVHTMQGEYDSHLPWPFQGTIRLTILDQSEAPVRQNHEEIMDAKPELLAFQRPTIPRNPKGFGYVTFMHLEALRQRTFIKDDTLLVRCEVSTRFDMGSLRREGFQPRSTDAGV
Briefly: co-immunoprecipitation and western blot, HEK293T cells (FIG. 3A). On the technique in general: Immunoblotting shows a protein as a band on a membrane.

B1: wild-type NS1 (NS1-Myc/His), nonstructural protein 1 of influenza virus strain A/PR/8 (PR8), C-terminal Myc-His tag (other)
chain: MDPNTVSSFQVDCFLWHVRKRVADQELGDAPFLDRLRRDQKSLRGRGSTLGLDIETATRAGKQIVERILKEESDEALKMTMASVPASRYLTDMTLEEMSRDWSMLIPKQKVAGPLCIRMDQAIMDKNIILKANFSVIFDRLETLILLRAFTEEGAIVGEISPLPSLPGHTAEDVKNAVGVLIGGLEWNDNTVRVSETLQRFAWRSSNENGRPPLTPKQKREMAGTIRSEV
As to B1, the binding result was “no binding”.

Values taken from patent US20220226463A1 (NATIONAL CHENG KUNG UNIVERSITY, published 2022).
